Experimental data reported in patent US20200209227A1.

Columns and labels:
Calmodulin [1] = assay: BSI, free-solution binding signal
Calmodulin [2] = assay: BSI, calmodulin-calcineurin assay, free solution
Calmodulin [3] = assay: BSI, free-solution binding signal; row repeated for a second PDB structure used in the model
Calmodulin [4] = assay: BSI; molar refractometry from the experimental phase shift at Bmax
Calmodulin [5] = assay: BSI; molar refractometry; row repeated for a second PDB structure used in the model

BSI ΔRIU (Calmodulin [1]): 0.00049 RIU
FreeSRF (binding) signal ΔRIU (Calmodulin [2]): 0.000441 RIU
BSI ΔRIU (Calmodulin [3]): 0.00049 RIU
Experimental Chi (RIU/M) (Calmodulin [4]): 46100 RIU/M
Experimental Chi (RIU/M) (Calmodulin [5]): 46100 RIU/M
Substance: Calcineurin (enzyme)
